These results are taken from patent publication US20090012275A1 (VIB VZW, published 2009).

Ends that are not written are not given here. * marks the point of attachment. Biotin = O=C1N[C@H]2[C@H](CS[C@H]2CCCCC(=O)*)N1

Assay [1] concerns the target T1, glucose-6-phosphate dehydrogenase from Leuconostoc mesenteroides (Sigma) (Leuconostoc mesenteroides, UniProt P11411 2-486).
T1 construct: Bought protein spotted on nitrocellulose
T1 sequence: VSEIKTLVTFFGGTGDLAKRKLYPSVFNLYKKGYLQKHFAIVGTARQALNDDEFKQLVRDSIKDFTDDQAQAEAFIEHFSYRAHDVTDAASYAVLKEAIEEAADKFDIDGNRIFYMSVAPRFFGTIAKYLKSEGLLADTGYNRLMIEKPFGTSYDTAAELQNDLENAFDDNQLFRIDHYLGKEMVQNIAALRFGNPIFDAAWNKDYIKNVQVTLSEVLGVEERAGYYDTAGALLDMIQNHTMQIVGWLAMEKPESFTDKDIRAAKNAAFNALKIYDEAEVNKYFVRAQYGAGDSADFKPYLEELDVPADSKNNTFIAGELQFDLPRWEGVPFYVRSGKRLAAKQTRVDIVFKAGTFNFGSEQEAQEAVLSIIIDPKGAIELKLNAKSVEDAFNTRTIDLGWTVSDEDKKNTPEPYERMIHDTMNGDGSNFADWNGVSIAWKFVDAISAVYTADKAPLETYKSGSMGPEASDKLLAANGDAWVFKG
Description: dot blot: 0.3 mg target protein on nitrocellulose, 10 mM biotinylated peptide, streptavidin-HRP chemiluminescence.

Assay [2] addresses T2, citrate synthase from porcine heart (Roche) (porcine, UniProt P00889 28-464).
T2 construct: Bought protein spotted on nitrocellulose
T2 sequence (looked up): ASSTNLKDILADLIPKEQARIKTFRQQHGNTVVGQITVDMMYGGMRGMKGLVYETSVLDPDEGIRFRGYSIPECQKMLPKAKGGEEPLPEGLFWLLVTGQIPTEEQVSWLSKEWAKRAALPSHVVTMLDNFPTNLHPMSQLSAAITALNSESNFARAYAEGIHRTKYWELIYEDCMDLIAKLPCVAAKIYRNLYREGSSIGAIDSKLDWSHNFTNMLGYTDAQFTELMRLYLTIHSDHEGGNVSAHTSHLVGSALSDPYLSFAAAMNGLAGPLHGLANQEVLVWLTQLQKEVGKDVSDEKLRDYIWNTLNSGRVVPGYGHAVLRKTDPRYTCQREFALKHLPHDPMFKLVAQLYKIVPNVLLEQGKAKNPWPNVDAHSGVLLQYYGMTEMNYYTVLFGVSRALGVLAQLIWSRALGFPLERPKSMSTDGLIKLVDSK
The description is as above.

B1: biotin-AFVDAISAVYTA (peptide)
peptide: Biotin-AFVDAISAVYTA
notes: Synthetic biotinylated peptide; also called interferor molecule with a specificity for glucose-6-phosphate dehydrogenase; biotinylated detection peptide
For the molecule B1, the binding result in assay [1] is on record as “binds”.

B2: biotin-ALFWLLVT (peptide)
peptide: Biotin-ALFWLLVT
notes: Synthetic biotinylated peptide (Jerine Peptide Technologies); biotin is part A, the peptide is part B; also called interferor molecule with a specificity for citrate synthase; biotinylated detection peptide
Turning to B2, the binding result in assay [2] is on record as “binds”.
